Laboratory results: patent US20100178296A1

B1: DX185, rat anti-human inhibitory CD200R monoclonal antibody (antibody, V domains shown)
VH: EIQLQESGPGLVKPSQSFSLTCSVTGYTITSGYDWSWIRKFPGNRMEWMGYINYSGSTVYNPSLRSRFSITRDTSKNQFFLQLNSVASEDTATYYCAKFEASNTYLYDWYFDFWGPGTMVTVSS
VL: DVQMTQSPSYLAASPGESVSISCKAGKNINTNLAWYQAKPGKTNKVLIHSGSTLQSGTPSRFSGSGFGTDFTLTIRSLEPEDFAVYYCQQHNEFPLTFGSGTKLEIKR
B2: DX184, rat anti-human inhibitory CD200R monoclonal antibody (antibody, V domains shown)
VL: DIVMTQSPTFMSISVGDRVTMSCKASQNVGSNVDWYQQKTGQSPKLLIYKASNRYTGVPDRFTGSGSGTGFTFTITNLQAEDLAVYYCMQSLSFPYTSGAGT
VH: QVQLKESGPGLVQPSQTLSLTCTVSGFSLTNNGVSWVRQPPGKGLEWIAAISSGGGTFYNSALKSRLSISRDTSKSQVFLKMNSLQTEDTAIYFCARDGDWDWYFDFWGPGTMVTVSS
B3: DX182, rat anti-human inhibitory CD200R monoclonal antibody (antibody, V domains shown)
VL: EVQMTQSPSTLTASPGESVSINCKASKNIRSYLAWYQQKPGKPNKLLIYSGSTLHSGTPSRFSGSGFGTDFTLTIRNLEPEDFGLYYCQQHHEYPLTFGSGTKLEIKR
VH: EIQLQESGPGLVKPSQSLSLTCSVTGYTITSGYDWSWIRKFPGNKMEWMGYINYGGSTNYKPSLGSRISITRDTSKNQFFLQLNSVSPEDTATYYCAKYNEYKSYIYDWYFDFWGPGTMVTVSS
B4: DX178, rat anti-human inhibitory CD200R monoclonal antibody (antibody, V domains shown)
VH: EIQLQESGPGLVKPSQSLSLTCSVTGFTITSGYDWSWIRKFPGNKMEWMGYIGFSGSTVYNPSLNSRISITRDTAKNQFFLQLNSVTTEDTATYHCAKSFVQNTFIYDWFFDFWGPGTMVTVSS
VL: DVRMTQSPSNLAASPGESVSINCKASKNISKYLAWYQQKPGKANRLLICSGSTLQSGTPSRFSGSGFGTDFTLTIRNLEPEDFGLYYCQQHNEFPLTFGSGTKLEIKR

How the values were obtained:
[1] = target: fusion protein of the extracellular domain of the human inhibitory receptor CD200R fused to the Fc portion of human IgG1 (human) (UniProt Q8TD46); assay: SPR (BIAcore 3000), fusion protein captured by anti-human Fc, antibody at 133 and 13.3 nM, bivalent analyte model
[2] = target: fusion protein of the extracellular domain of the human inhibitory receptor CD200R fused to the Fc portion of human IgG1 (human) (UniProt Q8TD46); assay: KinExA, human CD200R-Ig in solution and on the particles
[3] = target: fusion protein of the extracellular domain of the human inhibitory receptor CD200R fused to the Fc portion of human IgG1 (human) (UniProt Q8TD46); assay: SPR (BIAcore 3000), fusion protein captured by anti-human Fc, antibody 0.82 to 600 nM, bivalent analyte model
[4] = target: human CD200R, full length, expressed on murine mast cells (DT762) (human) (UniProt Q8TD46)
human CD200R, full length, expressed on murine mast cells (DT762) (human), sequence (Q8TD46 other isoform, or with tags, fused parts or gaps limits assumed, form in doubt): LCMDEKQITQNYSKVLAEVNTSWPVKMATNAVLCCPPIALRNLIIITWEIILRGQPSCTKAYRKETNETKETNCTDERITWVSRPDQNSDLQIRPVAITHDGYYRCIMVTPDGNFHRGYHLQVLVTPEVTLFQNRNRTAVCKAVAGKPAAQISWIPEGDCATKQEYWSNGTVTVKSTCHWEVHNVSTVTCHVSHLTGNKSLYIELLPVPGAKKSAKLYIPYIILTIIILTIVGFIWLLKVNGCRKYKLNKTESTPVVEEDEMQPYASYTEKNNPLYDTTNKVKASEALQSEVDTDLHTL

fusion protein of the extracellular domain of the human inhibitory receptor CD200R fused to the Fc portion of human IgG1 (human), sequence (Q8TD46 other isoform, or with tags, fused parts or gaps limits assumed, form in doubt): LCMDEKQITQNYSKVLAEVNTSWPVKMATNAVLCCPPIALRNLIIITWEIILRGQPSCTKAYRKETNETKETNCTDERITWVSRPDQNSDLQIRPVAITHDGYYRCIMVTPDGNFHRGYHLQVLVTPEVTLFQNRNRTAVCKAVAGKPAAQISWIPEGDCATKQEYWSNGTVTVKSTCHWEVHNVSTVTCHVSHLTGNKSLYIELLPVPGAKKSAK

| Binder | Kd [1] [nM] | Kd [2] [nM] | Kd [3] [nM] | IC50 (read off the curve) [4] [µg/mL] |
| --- | --- | --- | --- | --- |
| B1 | 0.202 | 0.126 | – | – |
| B2 | 1.93 | 0.026 | – | – |
| B3 | 0.024 | 0.056 | 0.76 | 0.2 |
| B4 | 1.62 | 0.628 | – | – |
